Broadly, the Kd is the equilibrium constant for the complex coming apart. Low values mean higher affinity, high ones lower affinity. By koff is commonly meant a measure of how fast the partners let go of each other. Higher therefore signals a short-lived complex. A word on the kon: it is the rate constant with which the complex forms.

From patent US20130336885A1 (Genentech, published 2013) come the findings set out here.

The target in test [1] is T1, gD epitope-tagged LgR5 424-907 (amino acids 424-907 of SEQ ID NO: 67) on transiently transfected 293 cells (human, UniProt O75473 424-907).
T1 sequence: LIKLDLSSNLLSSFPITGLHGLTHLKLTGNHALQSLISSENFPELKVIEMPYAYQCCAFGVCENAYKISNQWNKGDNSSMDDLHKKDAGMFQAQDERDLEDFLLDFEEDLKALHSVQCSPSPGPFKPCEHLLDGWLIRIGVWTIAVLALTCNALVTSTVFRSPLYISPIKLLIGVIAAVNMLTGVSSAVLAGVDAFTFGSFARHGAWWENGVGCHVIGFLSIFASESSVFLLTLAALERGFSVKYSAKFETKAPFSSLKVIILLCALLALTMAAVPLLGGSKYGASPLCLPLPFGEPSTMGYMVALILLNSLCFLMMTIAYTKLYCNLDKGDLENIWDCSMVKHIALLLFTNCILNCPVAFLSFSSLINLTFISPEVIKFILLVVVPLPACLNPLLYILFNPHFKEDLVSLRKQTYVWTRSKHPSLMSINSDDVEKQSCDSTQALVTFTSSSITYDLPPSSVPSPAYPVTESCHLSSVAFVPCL
Kind of test: FACS on transiently transfected 293 cells.

The target of test [2] is T2, gD epitope-tagged LgR5 324-907 (amino acids 324-907 of SEQ ID NO: 67) on transiently transfected 293 cells (human, UniProt O75473 324-907).
T2 sequence: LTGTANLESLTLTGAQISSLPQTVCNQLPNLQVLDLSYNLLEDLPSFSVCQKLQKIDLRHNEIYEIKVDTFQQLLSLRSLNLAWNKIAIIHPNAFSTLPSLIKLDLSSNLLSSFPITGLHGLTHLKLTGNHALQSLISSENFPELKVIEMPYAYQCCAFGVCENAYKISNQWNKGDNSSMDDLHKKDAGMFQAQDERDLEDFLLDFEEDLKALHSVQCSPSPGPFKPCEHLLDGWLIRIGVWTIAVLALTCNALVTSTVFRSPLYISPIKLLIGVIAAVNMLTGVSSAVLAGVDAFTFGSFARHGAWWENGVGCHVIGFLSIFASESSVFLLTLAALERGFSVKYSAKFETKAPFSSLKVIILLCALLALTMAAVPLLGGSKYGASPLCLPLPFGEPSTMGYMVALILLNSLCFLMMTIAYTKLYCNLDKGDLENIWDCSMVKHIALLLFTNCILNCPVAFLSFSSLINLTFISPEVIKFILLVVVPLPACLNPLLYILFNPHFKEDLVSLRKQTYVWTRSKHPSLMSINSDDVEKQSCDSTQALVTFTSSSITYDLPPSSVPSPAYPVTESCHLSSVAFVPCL
Kind of test: FACS on transiently transfected 293 cells.

In test [3] the target is T3, gD epitope-tagged LgR5 22-123 (amino acids 22-123 of SEQ ID NO: 67) with a C-terminal GPI anchor on … (human, UniProt O75473 22-123, C-terminal GPI anchor).
T3 sequence: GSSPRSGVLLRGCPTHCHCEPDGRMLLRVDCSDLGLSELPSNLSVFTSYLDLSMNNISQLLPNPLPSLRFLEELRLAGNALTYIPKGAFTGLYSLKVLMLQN
Kind of test: FACS on transiently transfected 293 cells.

The target in test [4] is T4, human LgR5 ECD (amino acids 22-557 fused to His-Fc expressed in a baculovirus system, or amino acids 22-558 … (human, UniProt O75473 22-557)).
T4 construct: not shown: C-terminal His-tagged Fc
T4 sequence: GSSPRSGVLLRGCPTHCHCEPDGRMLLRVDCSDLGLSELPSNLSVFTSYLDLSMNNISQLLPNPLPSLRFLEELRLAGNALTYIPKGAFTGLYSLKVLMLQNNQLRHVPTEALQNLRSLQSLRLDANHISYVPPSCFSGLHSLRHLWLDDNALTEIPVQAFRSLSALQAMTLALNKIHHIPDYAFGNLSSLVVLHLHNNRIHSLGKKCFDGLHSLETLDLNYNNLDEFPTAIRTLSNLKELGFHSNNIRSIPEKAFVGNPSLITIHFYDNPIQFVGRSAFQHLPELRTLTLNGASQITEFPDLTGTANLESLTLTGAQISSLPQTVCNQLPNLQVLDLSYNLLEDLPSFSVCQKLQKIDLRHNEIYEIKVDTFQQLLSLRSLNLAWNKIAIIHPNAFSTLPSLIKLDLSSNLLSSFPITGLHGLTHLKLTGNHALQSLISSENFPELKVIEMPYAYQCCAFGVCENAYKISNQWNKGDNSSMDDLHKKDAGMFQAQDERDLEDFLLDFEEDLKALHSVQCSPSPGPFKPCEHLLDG
Kind of test: BIAcore-3000 SPR, IgG captured on goat anti-human Fc, human LgR5 ECD-Fc injected, 25 C, 1:1 Langmuir model. As for the experimental part: The affinity of each 8E11 IgG variant for human LgR5 was determined by surface plasmon resonance using a BIAcore™-3000. BIAcore™ research grade CMS chips were activated with 1-ethyl-3-(3-dimethylaminopropyl) carbodiimide (EDC) and N-hydroxysuccinimide (NHS) reagents according to the supplier's instructions. Goat anti-human Fc IgGs were coupled to the chips to achieve approximately 10,000 response units (RU) in each flow cell. Unreacted coupling groups were blocked with 1M ethanolamine. For kinetics measurements, anti-LGR5 antibodies were captured to achieve approximately 300 RU. Two-fold serial dilutions of human LgR5ECD (amino acids 22-557 fused to His-Fc expressed in a baculovirus system, or amino acids 22-558 fused to Fc expressed from CHO cells; 125 nM to 0.49 nM) were injected in HBS-P buffer (0.01M HEPES pH7.4, 0.15M NaCl, 0.005% surfactant P20) at 25° C. with a flow rate of 30 μl/min. Association rates (kₒₙ) and dissociation rates (koff) were calculated using a 1:1 Langmuir binding model (BIAcore™ Evaluation Software version 3.2). The equilibrium dissociation constant (Kd) was calculated as the ratio koff/kₒₙ.
(In SPR one partner is held on a chip, and binding of the other changes the refractive index at the surface.)

B1: human antibody YW353 (antibody, human IgG1, kappa, V domains shown)
VH: EVQLVESGGGLVQPGGSLRLSCAASGFTFTSYSISWVRQAPGKGLEWVAEIYPPGGYTDYADSVKGRFTISADTSKNTAYLQMNSLRAEDTAVYYCAKARLFFDYWGQGTLVTVSS
VL: DIQMTQSPSSLSASVGDRVTITCRASQDVSTAVAWYQQKPGKAPKLLIYSASFLYSGVPSRFSGSGSGTDFTLTISSLQPEDFATYYCQQSYTTPPTFGQGTKVEIKR
notes: also called huYW353
With B1, the binding result in test [1] and in test [2] was “no binding (tested: 10 µg/ml)” in each case.

B2: humanized monoclonal antibody 8E11.v2 (antibody, human IgG1, kappa, V domains shown)
VH: EVQLVQSGAEVKKPGASVKVSCKASGYTFSAYWIEWVRQAPGQGLEWIGEILPGSDSTDYNEKFKVRATFTSDTSTSTVYLELSSLRSEDTAVYYCARGGHYGSLDYWGQGTLVTVSS
VL: DIVMTQSPDSLAVSLGERATINCRASESVDNYGNSFMHWYQQKPGQPPKLLIYLASNLESGVPDRFSGSGSGTDFTLTISSLQAEDVAVYYCQQNYEDPFTFGQGTKVEIKR
notes: It was assessed as an IgG; also called hu8E11.v2; hu8E11v2
Turning to B2, the binding result in test [3] is reported as “no binding (tested: 10 µg/ml)”. For the same molecule, the binding result in test [1] is on record as “no binding (tested: 10 µg/ml)”. In test [2], the binding result was “no binding (tested: 10 µg/ml)”. Moreover, in test [4], the dissociation constant Kd amounted to 3.1 nM, the koff turned out to be 0.000853 s⁻¹ and the kon turned out to be 279000 M⁻¹ s⁻¹.

B3: chimeric monoclonal antibody 8E11 (antibody, human IgG1, V domains shown)
VH: QVQLQQSGTELMKPGASVKISCKATGYTFSAYWIEWIKQRPGHGLEWIGEILPGSDSTDYNEKFKVKATFSSDTSSNTVYIQLNSLTYEDSAVYYCARGGHYGSLDYWGQGTTLKVSS
VL: NIVLTQSPASLAVSLGQRATISCRASESVDNYGNSFMHWYQQKPGQPPKLLIYLASNLESGVPARFSGSGSRTDFTLTIDPVEADDAATYYCQQNYEDPFTFGSGTKVEIKR
notes: also called ch8E11; chimeric 8E11
For the molecule B3, the binding result in test [3] is recorded as “no binding (tested: 10 µg/ml)”. In addition, the binding result in test [1] is listed as “no binding (tested: 10 µg/ml)”. The binding result in test [2] is “no binding (tested: 10 µg/ml)”. For the same molecule, in test [4], binding was characterised by a dissociation constant (Kd) of 3 nM, the koff was determined as 0.00064 s⁻¹ and the association rate constant (kon) amounted to 210000 M⁻¹ s⁻¹.
